Assay results published in patent publication US20130004493A1.

Experiments:
[1] = biological target: Focal adhesion kinase (FAK), human (human) (UniProt Q05397); assay: co-immunoprecipitation, ratio of co-immunoprecipitate to cognate immunoprecipitate, ARPE-19 cells
[2] = biological target: Focal adhesion kinase (FAK), human (human) (UniProt Q05397); assay: co-immunoprecipitation, ratio of co-immunoprecipitate to cognate immunoprecipitate, ARPE-19/EMP2 cells
[3] = biological target: Focal adhesion kinase (FAK), human (human) (UniProt Q05397); assay: cell-based or functional assay
[4] = biological target: Focal adhesion kinase (FAK), human (human) (UniProt Q05397); assay: co-immunoprecipitation, Western blot for FAK, ARPE-19 cells (figure legend)
[5] = biological target: Focal adhesion kinase (FAK), human (human) (UniProt Q05397); assay: co-immunoprecipitation with anti-EMP2 antibody, Western blot densitometry, ARPE-19 cells
[6] = biological target: Focal adhesion kinase (FAK), human (human) (UniProt Q05397); assay: co-immunoprecipitation with anti-EMP2 antibody, Western blot densitometry, ARPE-19/EMP2 cells
[7] = biological target: Focal adhesion kinase (FAK), human (human) (UniProt Q05397); assay: immunoprecipitation from ARPE-19 and ARPE-19/EMP2 lysates, Western blot densitometry

Chain of Focal adhesion kinase (FAK), human (human) (Q05397 2-1052): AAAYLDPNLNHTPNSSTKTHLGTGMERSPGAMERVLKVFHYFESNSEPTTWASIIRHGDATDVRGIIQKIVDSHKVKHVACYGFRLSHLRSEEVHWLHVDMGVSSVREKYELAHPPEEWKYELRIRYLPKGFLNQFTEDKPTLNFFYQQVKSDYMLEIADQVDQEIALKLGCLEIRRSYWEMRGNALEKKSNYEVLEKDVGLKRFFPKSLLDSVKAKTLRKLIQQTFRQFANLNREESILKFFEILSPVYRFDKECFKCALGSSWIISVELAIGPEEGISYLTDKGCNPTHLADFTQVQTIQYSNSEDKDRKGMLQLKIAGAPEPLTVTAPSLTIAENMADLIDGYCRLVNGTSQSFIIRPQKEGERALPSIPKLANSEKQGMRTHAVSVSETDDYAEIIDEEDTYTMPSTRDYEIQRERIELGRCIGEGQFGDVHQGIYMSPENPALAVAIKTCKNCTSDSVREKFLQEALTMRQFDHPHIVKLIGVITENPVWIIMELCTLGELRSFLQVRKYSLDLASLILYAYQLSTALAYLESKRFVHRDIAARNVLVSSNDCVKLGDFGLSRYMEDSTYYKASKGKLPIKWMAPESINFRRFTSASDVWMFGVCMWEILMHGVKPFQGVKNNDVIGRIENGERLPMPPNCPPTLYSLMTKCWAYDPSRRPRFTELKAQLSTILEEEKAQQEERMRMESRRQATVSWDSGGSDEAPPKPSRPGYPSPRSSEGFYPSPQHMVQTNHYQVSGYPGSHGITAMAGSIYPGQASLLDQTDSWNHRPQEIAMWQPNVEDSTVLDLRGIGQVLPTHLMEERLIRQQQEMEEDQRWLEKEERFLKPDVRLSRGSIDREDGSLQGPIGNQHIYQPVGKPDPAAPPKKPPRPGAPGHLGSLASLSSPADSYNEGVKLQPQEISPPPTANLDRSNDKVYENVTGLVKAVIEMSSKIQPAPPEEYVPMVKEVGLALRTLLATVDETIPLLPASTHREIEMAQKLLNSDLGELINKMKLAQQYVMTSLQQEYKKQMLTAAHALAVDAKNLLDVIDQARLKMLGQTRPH

Row | percent of total FAK associated with EMP2 [1] [%] | percent of total FAK associated with EMP2 [2] [%] | percent of FAK at the cell surface contacting the glass slide colocalized with EMP2 (confocal microscopy, ARPE-19/EMP2 cells) [3] [%] | percent of FAK at the cell surface contacting the glass slide colocalized with EMP2 (confocal microscopy, ARPE-19 cells) [3] [%] | percent of total FAK co-immunoprecipitated by EMP2 [4] [%] | level of FAK in the EMP2 immunoprecipitates [5] [%] | level of FAK in the EMP2 immunoprecipitates [6] [%] | cognate immunoprecipitation efficiency [7] [%] | Substance
1 | 24 | 30 | 96 | 68 | 25 | 12 | 15 |  | Epithelial membrane protein 2 (EMP2), human (from UniProt P54851 1-167)
2 |  |  |  |  |  |  |  | 50 to 60 | Anti-FAK polyclonal antibody (Santa Cruz Biotechnology, clone C-20)
